Several values for one entry are separate records, joined by “and”; a condition that tells them apart may be missing. Equal values may be shown once.

Experiment [1] has as its target G3BP1^NTF2 (UniProt Q13283). Put plainly: ITC. In general terms: ITC needs no label: the signal is the heat of the interaction.
Experiment [2] deals with T1, G3BP1^NTF2 (UniProt Q13283 11-133).
T1 construct: also called NTF2 domain of G3BP1
The experiment can be described thus: ITC. The note with it: both partners purified.

Chain of G3BP1^NTF2 (UniProt Q13283) (Q13283 11-133): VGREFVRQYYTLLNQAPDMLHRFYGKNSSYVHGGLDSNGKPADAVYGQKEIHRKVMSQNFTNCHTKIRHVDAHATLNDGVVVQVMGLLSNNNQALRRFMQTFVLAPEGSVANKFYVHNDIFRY
T1 sequence (Q13283 11-133): as above

In the case of “SARS-CoV-2 N^11–24 F/A (from UniProt P0DTC9 11-24) (domain or fragment)”, the fold reduction of affinity against N^11–24 wild type with G3BP1^NTF2 [1] is 7 fold and 6 fold.
With “SARS-CoV-2 N^11–24 I/A (from UniProt P0DTC9 11-24) (domain or fragment)”, in the experiment with G3BP1^NTF2 [1], the fold reduction of affinity against N^11–24 wild type was 6 fold and 7 fold.

B1: SARS-CoV-2 N^11–24 (domain or fragment)
chain: NAPRITFGGPSDST
notes: also called fragment from the N-IDR of N protein
As usually defined, the Kd is a measure of binding affinity in units of concentration. B1 gave a dissociation constant (Kd) with G3BP1^NTF2 [2] of about 10 µM.

These data come from article PMC8368218 (Cell Discovery, 2021).
